Assay results from US20120171195A1.
Blank lines part the entries; values can stand above or below the substance they belong to.

Key:
HLA-Cw*0302 (human) = HLA-Cw*0302 (human) (UniProt P10321); experiment: Luminex beads; MAb 1/400; PBS only
HLA-Cw*0801 (human) [1] = molecular target: HLA-Cw*0801 (human) (UniProt P10321); experiment: Luminex beads; MAb 1/400; PBS only
HLA-Cw*1802 (human) = HLA-Cw*1802 (human) (UniProt P10321); experiment: Luminex beads; MAb 1/400; PBS only
HLA-B*5801 (human) = experiment: Luminex beads; MAb 1/1600; competitor IgG-free serum
HLA-Cw*0801 (human) [2] = molecular target: HLA-Cw*0801 (human) (UniProt P10321); experiment: as above
HLA-Cw*1402 (human) [3] = molecular target: HLA-Cw*1402 (human) (UniProt P10321); experiment: as above
HLA-Cw*1701 (human) = experiment: Luminex beads; MAb 1/100; competitor rHLA-E
HLA-B*4801 (human) = HLA-B*4801 (human) (UniProt P01889); experiment: Luminex beads; MAb 1/100; competitor rHLA-E
HLA-B*0801 (human) = HLA-B*0801 (human) (UniProt P01889); experiment: Luminex beads; MAb 1/100; competitor rHLA-E
HLA-B*1401 (human) = HLA-B*1401 (human) (UniProt P01889); experiment: Luminex beads; MAb 1/100; competitor rHLA-E
HLA-B*4501 (human) = experiment: Luminex beads; MAb 1/100; competitor rHLA-E
HLA-Cw*0602 (human) = HLA-Cw*0602 (human) (UniProt P10321); experiment: Luminex beads; MAb 1/100; competitor rHLA-E
HLA-Cw*1502 (human) = experiment: Luminex beads; MAb 1/100; competitor rHLA-E
HLA-B*4001 (human) = HLA-B*4001 (human) (UniProt P01889); experiment: Luminex beads; MAb 1/100; competitor rHLA-E
HLA-B*1511 (human) = HLA-B*1511 (human) (UniProt P01889); experiment: Luminex beads; MAb 1/100; competitor rHLA-E
HLA-B*4403 (human) = experiment: Luminex beads; MAb 1/100; competitor rHLA-E
HLA-B*3701 (human) = experiment: Luminex beads; MAb 1/100; competitor rHLA-E
HLA-Cw*0304 (human) = experiment: Luminex beads; MAb 1/100; competitor rHLA-E
HLA-Cw*0501 (human) = experiment: Luminex beads; MAb 1/100; competitor rHLA-E
HLA-Cw*0202 (human) = experiment: Luminex beads; MAb 1/100; competitor rHLA-E
HLA-Cw*1402 (human) [4] = molecular target: HLA-Cw*1402 (human) (UniProt P10321); experiment: Luminex beads; MAb 1/100; competitor rHLA-E
HLA-Cw*0702 (human) = HLA-Cw*0702 (human) (UniProt P10321); experiment: Luminex beads; MAb 1/100; competitor rHLA-E
HLA-B*1513 (human) = experiment: Luminex beads; MAb 1/100; competitor rHLA-E
HLA-Cw*0303 (human) = experiment: Luminex beads; MAb 1/100; competitor rHLA-E
HLA-B*2708 (human) = HLA-B*2708 (human) (UniProt P01889); experiment: Luminex beads; MAb 1/100; competitor rHLA-E
HLA-B*2708 (B27) (human) = HLA-B*2708 (B27) (human) (UniProt P01889); experiment: Luminex single-antigen beads; MEM-E/02 1/600; serum Mi92 1/100
HLA-B*4403 (B44) (human) = experiment: as above
HLA-B*6701 (B67) (human) = HLA-B*6701 (B67) (human) (UniProt P01889); experiment: as above
HLA-B*0801 (B8) (human) = HLA-B*0801 (B8) (human) (UniProt P01889); experiment: as above
HLA-B*4501 (B45) (human) = experiment: as above
HLA-B*3801 (B38) (human) = experiment: as above
HLA-A*2403 (A24) (human) = experiment: as above
[5] = molecular target: HLA-Cw*0401 (Cw4) (human); experiment: as above
HLA-B*5401 (B54) (human) = HLA-B*5401 (B54) (human) (UniProt P01889); experiment: as above
HLA-B*4801 (B48) (human) = HLA-B*4801 (B48) (human) (UniProt P01889); experiment: as above
HLA-B*1801 (B18) (human) = experiment: as above
HLA-A*2601 (A26) (human) = experiment: as above
HLA-A*3201 (A32) (human) = experiment: as above
HLA-B*1513 (B77) (human) = experiment: as above
HLA-B*1301 (B13) (human) = experiment: as above
HLA-B*4901 (B49) (human) = experiment: as above
HLA-A*3301 (A33) (human) = experiment: as above

MFI (HLA-Cw*0302 (human)): 1360 MFI
MFI (HLA-Cw*0801 (human) [1]): 3340 MFI
MFI (HLA-Cw*1802 (human)): 7040 MFI
MFI (HLA-B*5801 (human)): 485 MFI
MFI (HLA-Cw*0801 (human) [2]): 865 MFI
MFI (HLA-Cw*1402 (human) [3]): 432 MFI
MFI (HLA-Cw*1701 (human)): 376 MFI
MFI (HLA-B*4801 (human)): 224 MFI
MFI (HLA-B*0801 (human)): 219 MFI
MFI (HLA-B*1401 (human)): 230 MFI
MFI (HLA-B*4501 (human)): 75 MFI
MFI (HLA-Cw*0602 (human)): 88 MFI
MFI (HLA-Cw*1502 (human)): 170 MFI
MFI (HLA-B*4001 (human)): 235 MFI
MFI (HLA-B*1511 (human)): 192 MFI
MFI (HLA-B*4403 (human)): 89 MFI
MFI (HLA-B*3701 (human)): 80 MFI
MFI (HLA-Cw*0304 (human)): 181 MFI
MFI (HLA-Cw*0501 (human)): 201 MFI
MFI (HLA-Cw*0202 (human)): 220 MFI
MFI (HLA-Cw*1402 (human) [4]): 165 MFI
MFI (HLA-Cw*0702 (human)): 220 MFI
MFI (HLA-B*1513 (human)): 256 MFI
MFI (HLA-Cw*0303 (human)): 139 MFI
MFI (HLA-B*2708 (human)): 191 MFI
Substance: murine monoclonal antibody (MAb) MEM-E/02

MFI (HLA-B*2708 (B27) (human)): < 500 MFI
MFI (HLA-B*4403 (B44) (human)): 600 MFI
MFI (HLA-B*6701 (B67) (human)): < 500 MFI
MFI (HLA-B*0801 (B8) (human)): 990 MFI
MFI (HLA-B*4501 (B45) (human)): < 500 MFI
MFI (HLA-B*3801 (B38) (human)): < 500 MFI
MFI (HLA-A*2403 (A24) (human)): < 500 MFI
% inhibition [5]: 60%
MFI [5]: 826 MFI
MFI (HLA-B*5401 (B54) (human)): < 500 MFI
MFI (HLA-B*4801 (B48) (human)): < 500 MFI
MFI (HLA-B*1801 (B18) (human)): < 500 MFI
MFI (HLA-A*2601 (A26) (human)): < 500 MFI
MFI (HLA-A*3201 (A32) (human)): < 500 MFI
MFI (HLA-B*1513 (B77) (human)): < 500 MFI
MFI (HLA-B*1301 (B13) (human)): 978 MFI
MFI (HLA-B*4901 (B49) (human)): 890 MFI
MFI (HLA-A*3301 (A33) (human)): 522 MFI
Substance: murine monoclonal antibody MAb MEM-E/02
